Assay results taken from article PMC7532634.

Legend:
Experiment in all cases: EMSA
[1] = test system: MsrR (Corynebacterium glutamicum); details: no oxidant; apparent KD; 10 mM Tris-HCl pH 7.4 (Fig 4 legend says pH 8.0 for the H2O2/DTT test), 5 mM MgCl2, 50 mM KCl, 5% glycerol, 0.1% NP40, 1 ug poly(dI:dC), 40 ng DNA in 20 ul …
[2] = test system: MsrR:C62S (Corynebacterium glutamicum); details: no H2O2; unit inferred, nM from context; apparent KD; 10 mM Tris-HCl pH 7.4 (Fig 4 legend says pH 8.0 for the H2O2/DTT test), 5 mM MgCl2, 50 mM KCl, 5% glycerol, 0.1% NP40, 1 ug poly(dI:dC), 40 ng DNA in 20 ul …
[3] = test system: T1, MsrR:C62S C62S (Corynebacterium glutamicum), ORF:1371e9c5; details: 10 mM Tris-HCl pH 7.4 (Fig 4 legend says pH 8.0 for the H2O2/DTT test), 5 mM MgCl2, 50 mM KCl, 5% glycerol, 0.1% NP40, 1 ug poly(dI:dC), 40 ng DNA in 20 ul …
T1 sequence: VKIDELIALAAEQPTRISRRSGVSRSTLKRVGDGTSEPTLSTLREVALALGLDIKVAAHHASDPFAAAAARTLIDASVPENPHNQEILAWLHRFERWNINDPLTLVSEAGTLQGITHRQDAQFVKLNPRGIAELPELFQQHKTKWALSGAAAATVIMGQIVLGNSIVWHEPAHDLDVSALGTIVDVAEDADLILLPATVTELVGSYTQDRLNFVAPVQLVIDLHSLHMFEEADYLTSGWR

Substance | Kd [1] [nM] | Kd [2] [nM] | Kd [3] [nM] | binding [3]
PmsrR | 17 | 23.1 |  | 
GTGGACACGGGGTGTCTCCTAAAGATGGGGAGCAAAAACCCTCAAACTGCTGCTAAAAATACAGGATTGGCGCCCGTGACGCTACTGAAAAGGTGGAGGGGCGCGTCGAAAAGCGTTGGCCGGTGCCTGAGCGAAAAACCGTGATGATTAGCATGGTTTGTT (double strand) [PmsrR] |  |  | 23.1 | binds
